For this test, the target named is HA-ASIC2a (mouse acid-sensing ion channel 2a, HA epitope-tagged) (mouse) (UniProt Q925H0).

1 molecule from paper PMC3974781 can be followed below.

UniProt Q925H0, sequence (Q925H0 whole entry): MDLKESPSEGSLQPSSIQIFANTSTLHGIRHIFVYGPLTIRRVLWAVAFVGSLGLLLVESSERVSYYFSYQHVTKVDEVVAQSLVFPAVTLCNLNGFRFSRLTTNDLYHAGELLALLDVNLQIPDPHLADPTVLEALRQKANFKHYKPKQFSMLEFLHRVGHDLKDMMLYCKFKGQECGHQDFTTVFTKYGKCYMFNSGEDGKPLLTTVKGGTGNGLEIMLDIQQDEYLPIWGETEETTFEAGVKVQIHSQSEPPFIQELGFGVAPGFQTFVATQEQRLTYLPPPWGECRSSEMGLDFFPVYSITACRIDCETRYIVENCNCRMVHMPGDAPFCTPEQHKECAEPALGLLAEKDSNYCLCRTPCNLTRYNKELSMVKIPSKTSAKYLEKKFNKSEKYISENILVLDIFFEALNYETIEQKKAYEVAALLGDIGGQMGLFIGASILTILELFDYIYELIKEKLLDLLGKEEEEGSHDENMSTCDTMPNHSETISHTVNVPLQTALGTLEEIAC

B1: ASIC1a (mouse acid-sensing ion channel 1a) (natural protein)
chain: MELKTEEEEVGGVQPVSIQAFASSSTLHGLAHIFSYERLSLKRALWALCFLGSLAVLLCVCTERVQYYFCYHHVTKLDEVAASQLTFPAVTLCNLNEFRFSQVSKNDLYHAGELLALLNNRYEIPDTQMADEKQLEILQDKANFRSFKPKPFNMREFYDRAGHDIRDMLLSCHFRGEACSAEDFKVVFTRYGKCYTFNSGQDGRPRLKTMKGGTGNGLEIMLDIQQDEYLPVWGETDETSFEAGIKVQIHSQDEPPFIDQLGFGVAPGFQTFVSCQEQRLIYLPSPWGTCNAVTMDSDFFDSYSITACRIDCETRYLVENCNCRMVHMPGDAPYCTPEQYKECADPALDFLVEKDQEYCVCEMPCNLTRYGKELSMVKIPSKASAKYLAKKFNKSEQYIGENILVLDIFFEVLNYETIEQKKAYEIAGLLGDIGGQMGLFIGASILTVLELFDYAYEVIKHRLCRRGKCQKEAKRNSADKGVALSLDDVKRHNPCESLRGHPAGMTYAANILPHHPARGTFEDFTC
As for B1, the pH50 of activation of acid-evoked currents in CHO cells coexpressing ASIC1a and ASIC2a (whole-cell patch clamp); ASIC1a alone pH50 = 6.7, ASIC2a alone pH50 = 4.0 is 5.4 pH.
